# Results taken from patent US20180177842A1 (CANIMGUIDE THERAPEUTICS, published 2018).
# Ends that are not written are not given here.
# T1: His-tagged P3028 (human, also: His tag, length and end not given here)
# T1 construct: in solution at 0.5 ug/mL, detected with mouse anti-His antibody and rabbit anti-mouse peroxidase (rampo); also called PGE73; His-tag-P3028; not shown: His tag
# T1 peptide: VFDEFKPLVEEPQNLIK
# Molecular target: T1, His-tagged P3028
# Test: PEPSCAN ELISA, peptide on chip;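 note: binding detected by peroxidase ELISA with ABTS, OD405 colour imaged by CCD camera before and after staining, raw OD405 reported as rampo units, air-bubble wells scored 0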
row,Binder,RAMPO Score
1,KKLETFFVKLSLFTER [SEQ ID NO 299],417 rampo units
2,KKLDTFFVKLSLNTER [SEQ ID NO 368],862 rampo units
3,KKLDTFMVKLSLFTER [SEQ ID NO 321],712 rampo units
4,KKLDWFFVKLSLFTER [SEQ ID NO 311],418 rampo units
5,KKLDTFFVKLSRFTER [SEQ ID NO 356],483 rampo units
6,KKLDTNFVKLSLFTER [SEQ ID NO 316],446 rampo units
7,KKLDTFFVKLSLITER [SEQ ID NO 365],468 rampo units
8,KKLDTFVVKLSLFTER [SEQ ID NO 325],527 rampo units
9,KKLDTFFVKLTLFTER [SEQ ID NO 349],520 rampo units
10,KKLDTFFVKTSLFTER [SEQ ID NO 342],399 rampo units
11,KKLDTFFVKLSLLTER [SEQ ID NO 366],448 rampo units
12,KKLDTIFVKLSLFTER [SEQ ID NO 314],466 rampo units
13,KKLDTFFVKLSLGTER [SEQ ID NO 363],531 rampo units
14,KKLDTFFVKGSLFTER [SEQ ID NO 334],495 rampo units
15,KKLDTFFVKSSLFTER [SEQ ID NO 341],351 rampo units
16,KKLDTFFVKLNLFTER [SEQ ID NO 347],451 rampo units
17,KKLDTFFVKLSLCTER [SEQ ID NO 362],400 rampo units
18,KKLDTFFVKQSLFTER [SEQ ID NO 339],470 rampo units
19,KKLDTFFVKLSTFTER [SEQ ID NO 358],437 rampo units
20,KKLDTFFFKLSLFTER [SEQ ID NO 326],358 rampo units
21,KKLDTPFVKLSLFTER [SEQ ID NO 317],497 rampo units
22,KKLDTAFVKLSLFTER [SEQ ID NO 313],575 rampo units
23,KKLDTMFVKLSLFTER [SEQ ID NO 315],467 rampo units
24,KKLWTFFVKLSLFTER [SEQ ID NO 302],443 rampo units

row,Binder,RAMPO Score
1,KKLDTFQVKLSLFTER [SEQ ID NO 322],511 rampo units
2,KKLDTFFVKMSLFTER [SEQ ID NO 336],460 rampo units
3,KKLDTFFVKLHLFTER [SEQ ID NO 345],535 rampo units
4,KKLDTFFVKLSVFTER [SEQ ID NO 359],545 rampo units
5,KKLVTFFVKLSLFTER [SEQ ID NO 301],424 rampo units
6,KKLDTFLVKLSLFTER [SEQ ID NO 320],517 rampo units
7,KKLDTFFVKLSQFTER [SEQ ID NO 355],651 rampo units
8,KKLDSFFVKLSLFTER [SEQ ID NO 310],458 rampo units
9,KKLDTVFVKLSLFTER [SEQ ID NO 319],547 rampo units
10,KKLDTFFVKLSLPTER [SEQ ID NO 369],696 rampo units
11,KKLDTFFVKLSAFTER [SEQ ID NO 350],462 rampo units
12,KKLDTFFVKLSMFTER [SEQ ID NO 353],499 rampo units
13,KKLDTFFVKLSLMTER [SEQ ID NO 367],1190 rampo units
14,KKLDTFFPKLSLFTER [SEQ ID NO 329],456 rampo units
15,KKLDMFFVKLSLFTER [SEQ ID NO 305],475 rampo units
16,KKLDTFFVKLSWFTER [SEQ ID NO 360],409 rampo units
17,KKLDTFFVKFSLFTER [SEQ ID NO 333],403 rampo units
18,KKLDTFFVKVSLFTER [SEQ ID NO 343],658 rampo units
19,KKLDTFFLKLSLFTER [SEQ ID NO 328],411 rampo units
20,KKLDCFFVKLSLFTER [SEQ ID NO 304],449 rampo units
21,KKLDTFFVKLSLATER [SEQ ID NO 361],525 rampo units
22,KKLDTFFVKLQLFTER [SEQ ID NO 348],768 rampo units
23,KKLDTFSVKLSLFTER [SEQ ID NO 323],700 rampo units
24,KKLDTFFVKLSNFTER [SEQ ID NO 354],462 rampo units

row,Binder,RAMPO Score
1,KKLDTFFVKLMLFTER [SEQ ID NO 346],744 rampo units
2,KKLDRFFVKLSLFTER [SEQ ID NO 309],430 rampo units
3,KKLDQFFVKLSLFTER [SEQ ID NO 308],535 rampo units
4,KKLDTFFVKLSSFTER [SEQ ID NO 357],478 rampo units
5,KKLDTFFVKASLFTER [SEQ ID NO 332],426 rampo units
6,KKLDTFFVKLSHFTER [SEQ ID NO 351],460 rampo units
7,KKLDYFFVKLSLFTER [SEQ ID NO 312],425 rampo units
8,KKLDTFFGKLSLFTER [SEQ ID NO 327],379 rampo units
9,KKLDTFTVKLSLFTER [SEQ ID NO 324],517 rampo units
10,KKLDTFFVKYSLFTER [SEQ ID NO 344],382 rampo units
11,KKLDNFFVKLSLFTER [SEQ ID NO 306],436 rampo units
12,KKLDTFFVKISLFTER [SEQ ID NO 335],415 rampo units
13,KKLDTTFVKLSLFTER [SEQ ID NO 318],481 rampo units
14,KKLITFFVKLSLFTER [SEQ ID NO 300],430 rampo units
15,KKLYTFFVKLSLFTER [SEQ ID NO 303],422 rampo units
16,KKLDTFFVKNSLFTER [SEQ ID NO 337],365 rampo units
17,KKLDTFFVRLSLFTER [SEQ ID NO 331],374 rampo units
18,KKLDTFFVKLSIFTER [SEQ ID NO 352],456 rampo units
19,KKLDPFFVKLSLFTER [SEQ ID NO 307],427 rampo units
20,KKLDTFFVKRSLFTER [SEQ ID NO 340],439 rampo units
21,KKLDTFFRKLSLFTER [SEQ ID NO 330],365 rampo units
22,KKLDTFFVKPSLFTER [SEQ ID NO 338],436 rampo units
23,KKLDTFFVKLSLHTER [SEQ ID NO 364],1050 rampo units
